Experimental data: EP4703474A1, “ANTI-LRRC15 ANTIBODY” (priority 2023, dated 2024)
Positions count from the first letter of the chain named.

B1: H02L01-PBD (conjugate)
heavy: EVQLVESGGGLVQPGGSLRLSCAASGFTFRDYYMAWVRQAPGKGLEWVSSIGFDESRTYYADSVKGRFTISRDDSKNTLYLQMNSLRAEDTAVYYCARHGVSYYSGDNWFAYWGQGTLVTVSSASTKGPSVFPLAPSSKSTSGGTAALGCLVKDYFPEPVTVSWNSGALTSGVHTFPAVLQSSGLYSLSSVVTVPSSSLGTQTYICNVNHKPSNTKVDKKVEPKSCDKTHTCPPCPAPEAAGGPSVFLFPPKPKDTLMISRTPEVTCVVVDVSHEDPEVKFNWYVDGVEVHNAKTKPREEQYNSTYRVVSVLTVLHQDWLNGKEYKCKVSNKALAAPIEKTISKAKGQPREPQVYTLPPSREEMTKNQVSLTCLVKGFYPSDIAVEWESNGQPENNYKTTPPVLDSDGSFFLYSKLTVDKSRWQQGNVFSCSVMHEALHNHYTQKSLSLSPGK
light: DIQMTQSPSSLSASVGDRVTITCKSSQGLLYSGDQKNYLAWYQQKPGKAPKLLIYWASTRQSGVPSRFSGSGSGTDFTLTISSLQPEDFATYYCQQYYDPPYTFGQGTKVEIKRTVAAPSVFIFPPSDEQLKSGTASVVCLLNNFYPREAKVQWKVDNALQSGNSQESVTEQDSKDSTYSLSSTLTLSKADYEKHKVYACEVTHQGLSSPVTKSFNRGEC
B2: H02L01-V1-PBD (conjugate)
heavy: B1 heavy with Y103K
light: B1 light

What was measured:
[1] = test system: Mouse colorectal carcinoma cell line CMT93; assay: In vivo antitumor effect, CMT93 subcutaneous transplant model; settings: 0.4 mg/kg, tail vein, on Day 7, male B6J mice
Description: (§1) The antitumor effects of the antibody-drug conjugates were evaluated by using animal models in which cells of a human tumor cell line had been transplanted into immunodeficient mice, or cells of a mouse tumor cell line had been transplanted into immunocompetent mice. 4 to 6 Week-old SCID mice (CB17/Icr-Prkdc[scid]/CrlCrlj, Jackson Laboratory Japan, Inc.), NSG mice (NOD.Cg-Prkdcscid Il2rgtm1Wjl/SzJ, Jackson Laboratory Japan, Inc.), or B6J mice (C57BL/6J, Jackson Laboratory Japan, Inc.) were habituated for 3 days or more under SPF conditions before experimental use. The mice were fed with sterilized solid feed and given sterilized tap water. The major and minor diameters of the transplanted tumors were measured twice a week with an electronic digital caliper (Mitutoyo Corporation), and the estimated tumor volume was calculated using the following formula. Estimated tumor volume (mm^3) = 1/2 × major diameter (mm) × [minor diameter (mm)]^2 All antibody-drug conjugates were diluted with ABS and administered into the tail vein at doses shown in each Example. In addition, ABS (vehicle) or control hIgG-PBD prepared in Reference Example 4 was administered as the control group, in a similar manner. 5 to 6 Mice were used per group in the experiment. To analyze the LRRC15 expression in mouse tumor models, immunohistochemical staining of LRRC15 was performed. […]

[2] = test system: LRRC15-negative human lung carcinoma cell line HCC827; assay: In vivo antitumor effect, HCC827 subcutaneous transplant model; settings: 0.4 mg/kg, tail vein, on Day 10, female SCID mice, huM25-MMAE at 0.4 mg/kg or 3.6 mg/kg
Description: The antitumor effects of the antibody-drug conjugates were evaluated by using animal models in which cells of the human tumor cell line had been transplanted into immunodeficient mice. 4 to 6 Week-old SCID mice (CB17/Icr-Prkdc[scid]/CrlCrlj, Jackson Laboratory Japan, Inc.) were habituated for 3 days or more under SPF conditions before experimental use. The mice were fed with sterilized solid feed (FR-2, Funabashi Farms Co., Ltd.) and given sterilized tap water (prepared by adding a solution of 5 to 15 ppm sodium hypochlorite). The major and minor diameters of the transplanted tumors were measured twice a week with an electronic digital caliper ([…] Corporation), and the estimated tumor volume was calculated using the following formula. Estimated tumor volume (mm^3) = 1/2 × major diameter (mm) × [minor diameter (mm)]^2 All antibody-drug conjugates were diluted with ABS and administered into the tail vein at doses shown in each Example. In addition, ABS (vehicle) or control hIgG-PBD prepared in Reference Example 4 was administered as the control group, in a similar manner. 5 to 6 Mice were used per group in the experiment. […]

[3] = test system: LRRC15-positive human glioblastoma cell line U118MG; assay: In vivo antitumor effect, U118MG subcutaneous transplant model; settings: 0.4 mg/kg, tail vein, on Day 17, female SCID mice
Description: as §1, with “experiment.” for “experiment. To analyze the LRRC15 expression in mouse tumor models, immunohistochemical staining of LRRC15 was performed.”

Molecule	antitumor effect (estimated tumor volume) [1]	antitumor effect (estimated tumor volume) [2]	antitumor effect (estimated tumor volume) [3]
B1	antitumor activity higher than that of the vehicle and the control hIgG-PBD	antitumor activity higher than that of the vehicle, the control hIgG-PBD, and huM25-MMAE	antitumor activity higher than that of the vehicle and the control hIgG-PBD
B2	antitumor activity higher than that of the vehicle and the control hIgG-PBD	antitumor activity higher than that of the vehicle, the control hIgG-PBD, and huM25-MMAE	antitumor activity higher than that of the vehicle and the control hIgG-PBD
